Reference: US11045560B2, “Therapeutic conjugates with sulfated dendrimers for intracellular targeting” (IC DISCOVERY GMBH, priority 2014, dated 2021)
No end group written: not given here. d02 = not defined here

Tests used:
[1] = test system: HT29, HepG2, QGP-1, A431, MCF-7, A2780; test: Inhibition of cell proliferation measured by MTT test; format: cell-based, human
[2] = test system: HT29, HepG2, QGP-1, MCF-7; test: Inhibition of cell proliferation by MTT test, comparison to sulfated polymer; format: cell-based, human; conditions: range from 4 cell lines (Table 8)
Procedure: For cytotoxicty measurements, 2×10^5 cells were incubated with 1 ml culture medium containing increasing concentrations of test substances. After 72 hs treatment, cell number, viability and cell diameter as parameter of apoptotic processes were analyzed in a cell counter and analyzer system (CASY®, Schärfe Systems). In addition, drug cytotoxicity was assessed in vitro using the MTT assay (cellular reduction of 3-(4,5-dimethylthiazol-2-yl)-2,5-diphenyltetrazolium bromide) as a test for metabolic activity of the cells. 1×10^4 cells per well were seeded in 96-well plates in 100 μl culture medium containing increasing concentration of the test substance. 10 μl MTT (5 mg/ml in PBS, obtained from Sigma) was added to each well and the plates were incubated for 4 hrs, 24 hrs, 48 hrs or up to 72 h. The resulting formazan product was dissolved with acid isopropanol and the absorbance at a wavelength of 570 nm (Ex570) was read on a Microplate Spectrophotometer (Anthos htII, Microsystems). In a couple of experiments, medium with test substances was removed after 48 hs, cells were counted and identical cell numbers with new medium without test substances were seeded in new plates. MTT assay was performed after further incubation for 72 hours.
This polymer is functionalized with the linker maleimido-PEG(4)-COOH NHS ester as described in example 2a, and further purified via RP chromatography. […]

[3] = test system: HT29, HepG2, QGP-1, A431, MCF-7, A2780; conditions: for % uptake: FACS, relative to ICC-d01, range from different cell lines, incubation 24 h, conjugates additionally ICC-labeled, fluorescence-corrected
Procedure: The human cancer cell lines A2780 and QGP-1 are cultured in RPMI medium, with 10% fetal calf serum (FCS), 2% glutamine, and penicillin/streptomycin added. All cells are seeded into medium at 1×10^5 cells/ml, cultured at 37° C. with 5% CO2, and split 1:5 two times a week. The epithelial human cancer cell lines A549, MCF7, HaCaT, and HepG2 are propagated in DMEM medium (PAN Biotech), with 10% fetal FCS, 2% glutamine, and penicillin/streptomycin. Cells are seeded into medium at 1×10^5 cells/ml (37° C. with 5% CO2, split 1:5 two times a week). HT29 cells are cultured in McCoy's medium (PAN biotech), with 10% FCS), 2% glutamine, and penicillin/streptomycin. Cells are seeded into medium at 1×10^5 cells/ml (37° C. with 5% CO2, split 1:10 two times a week). […] Afterwards, cells are fixed with cold acetone, rinsed and covered with 4,6-diamidino-2-phenylindole (DAPI, Abcam) for nuclear counterstain. Image acquisition is performed using a Leica DMRB microscope (Leica). Images are taken with a digital camera (Spot 32, Diagnostic Instruments) with the same exposure time for all pictures. […] This amount and time is sufficient to measure the supernatant after pooling and cell lysis with DMSO.
For FACS studies, 2×10^5 cells/ml cells are cultured in 24-well plates with normal culture medium or medium containing different concentrations of test substances for 3 or 24 hours. Thereafter, cells are washed with PBS and detached with 200 μl/well accutase (PAA) and washed two times with PBS. Cells are fixed with 500 μl 3% paraformaldehyde for 10 min at 4° C., stopped with 2 ml PBS and centrifuged with 250×g, for 10 min at 4° C. Supernatants are removed and cells were suspended in 200 μl PBS with 0.5% bovine serum albumin (Roth).
Fixed cells are kept at 4° C. until analysis in a FACS Calibur instrument (Becton-Dickinson).

[4] = test system: QGP-1 tumor cells; test: Uptake into QGP-1 cells by FACS in presence of genistein or rifamycin; format: cell-based, human; conditions: for uptake +genistein (%) / uptake +rifamycin (%): relative to without inhibitor; for uptake w/o inhibitor (%): without inhibitor defined as 100%
Procedure: Studies on cellular uptake measured by FACS were conducted as described in example 13. Compound Asp-d13 is incubated at a concentration of 10^−7 M in QGP-1 tumor cells for 3 h and 6 h. Incubation is done in the presence of one of the following two substrates: (1) 0.1 mM genistein, an inhibitor for endocytotic uptake (Rejman et al., Mol. Ther. 2005, 12, 468-474) or (2) 50 mM rifamycin, an inhibitor of uptake via organic anion transporter proteins (OATP; Bi et al., Drug Metab Dispos. 2012, 40, 1085-92).

[5] = range from different cell lines (Table 6)
[6] = range from different cell lines, peptide-dendrimer conjugates (Table 7)

| Molecule | IC50 [1, 5] [nM] | % uptake [3] | IC50 [1, 6] [nM] | further results |
| --- | --- | --- | --- | --- |
| saporin | > 1000 | 5-8% | – | IC50 [2]: > 1000 nM |
| d02-P5: peptide P5 conjugated to maleimido dendrimer d02 (C(d02)GEEQWAREIGAQLRRMADDLNAQYER-NH2; reading uncertain; also: conjugated via N-terminal Cys thiol to maleimido dendrimer d02) | – | – | 800 to 2000 | – |
| d02-P6: peptide P6 conjugated to maleimido dendrimer d02 (C(d02)GEDIIRNIARHAAQVGASADRSI-NH2; reading uncertain; also: conjugated via N-terminal Cys thiol to maleimido dendrimer d02) | – | – | 1200 to 2300 | – |
| Diphtheria toxin | > 500 | 8-10% | – | – |
| DNase | > 2000 | 4-12% | – | – |
| d02-P1: peptide P1 conjugated to maleimido dendrimer d02 (CGMRPEIWIAQELRRIGDEFNA; conjugated to maleimido dendrimer d02; BIM) | – | – | 900 to 2100 | – |
| L-asparaginase (protein, UniProt P00805 23-348, looked up, enzyme, homotetramer of 4 units of 34 kDa (L-asparaginase 5000E, Medac), without dendrimer) L-asparaginase 2: LPNITILATGGTIAGGGDSATKSNYTVGKVGVENLVNAVPQLKDIANVKGEQVVNIGSQDMNDNVWLTLAKKINTDCDKTDGFVITHGTDTMEETAYFLDLTVKCDKPVVMVGAMRPSTSMSADGPFNLYNAVVTAADKASANRGVLVVMNDTVLDGRDVTKTNTTDVATFKSVNYGPLGYIHNGKIDYQRTPARKHTSDTPFDVSKLNELPKVGIVYNYANASDLPAKALVDAGYDGIVSAGVGNGNLYKSVFDTLATAAKTGTAVVRSSRVPTGATTQDAEVDDAKYGFVASGTLNPQKARVLLQLALTQTKDPQQIQQIFNQY | > 1500 | 4-7% | – | uptake into tumor cells ([3]; in words, referring to example 15): do not show uptake into tumor cells |
| Asp-d13: L-asparaginase conjugated with maleimido dendrimer d13 (conjugate, UniProt P00805 23-348, looked up, maleimido dendrimer d13 conjugate) L-asparaginase 2: LPNITILATGGTIAGGGDSATKSNYTVGKVGVENLVNAVPQLKDIANVKGEQVVNIGSQDMNDNVWLTLAKKINTDCDKTDGFVITHGTDTMEETAYFLDLTVKCDKPVVMVGAMRPSTSMSADGPFNLYNAVVTAADKASANRGVLVVMNDTVLDGRDVTKTNTTDVATFKSVNYGPLGYIHNGKIDYQRTPARKHTSDTPFDVSKLNELPKVGIVYNYANASDLPAKALVDAGYDGIVSAGVGNGNLYKSVFDTLATAAKTGTAVVRSSRVPTGATTQDAEVDDAKYGFVASGTLNPQKARVLLQLALTQTKDPQQIQQIFNQY | 10 to 20 | – | – | FACS signal in the presence of genistein relative to without inhibitor ([4]; 10^−7 M, 3 h and 6 h, 0.1 mM genistein): 80-85%; FACS signal in the presence of rifamycin relative to without inhibitor ([4]; 10^−7 M, 3 h and 6 h, 50 mM rifamycin): 37-40% |
| Asp-polyglycerolsulfate: L-asparaginase coupled to a polyglycerolsulfate, mean molecular weight 12000 Da, according to WO2011/095311 (conjugate, UniProt P00805 23-348, looked up, polyglycerolsulfate conjugate, 12000 Da) L-asparaginase 2: LPNITILATGGTIAGGGDSATKSNYTVGKVGVENLVNAVPQLKDIANVKGEQVVNIGSQDMNDNVWLTLAKKINTDCDKTDGFVITHGTDTMEETAYFLDLTVKCDKPVVMVGAMRPSTSMSADGPFNLYNAVVTAADKASANRGVLVVMNDTVLDGRDVTKTNTTDVATFKSVNYGPLGYIHNGKIDYQRTPARKHTSDTPFDVSKLNELPKVGIVYNYANASDLPAKALVDAGYDGIVSAGVGNGNLYKSVFDTLATAAKTGTAVVRSSRVPTGATTQDAEVDDAKYGFVASGTLNPQKARVLLQLALTQTKDPQQIQQIFNQY | – | – | – | uptake +genistein (%) ([4]; 3 h, 0.1 mM genistein): 50%; uptake +rifamycin (%) ([4]; 3 h, 50 mM rifamycin): 76%; uptake w/o inhibitor (%) ([4]; 3 h): 100%; uptake +genistein (%) ([4]; 6 h, 0.1 mM genistein): 55%; uptake +rifamycin (%) ([4]; 6 h, 50 mM rifamycin): 72%; uptake w/o inhibitor (%) ([4]; 6 h): 100%; dependency of uptake on endocytosis ([4]; inhibition by genistein, in words): endocytosis could be identified due to inhibition by genistein |
